# According to PMC5737834:
# Where “and” joins values, the source holds several entries; their conditions need not be identical. Equal entries are not always repeated.
# Biological target: Recombinant human SP-A1 (SP-A1^hyp) (human) (UniProt Q8IWL2)
# Test: native gel or EMSA + AUC
substance,measurement,value
Recombinant human SP-A1 (SP-A1^hyp) (from UniProt Q8IWL2 21-248) (natural protein),stoichiometry N,3 and 6
